Molecular target: human TNF-α (human) (UniProt P01375)
Test: cell-based or functional assay

Sequence of UniProt P01375 (P01375 77-233 limits assumed): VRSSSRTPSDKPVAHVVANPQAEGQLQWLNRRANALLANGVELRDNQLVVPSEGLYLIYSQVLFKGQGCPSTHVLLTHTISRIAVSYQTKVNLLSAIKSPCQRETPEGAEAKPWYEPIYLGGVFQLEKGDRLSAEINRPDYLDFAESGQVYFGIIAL

## TA001 (the original Adalimumab) (antibody)
  IC50 (M), TNF-α-mediated killing of L929 cells (CCK-8): 1.48e-08 M

Source: US20230242634A1
